Biological target: T1, human NKG2D expressed on cells (human, UniProt P26718 1-216)
T1 construct: the cell type is named under assay; also called NKG2D on NK92 cells; HEK293T human NKG2D
T1 chain: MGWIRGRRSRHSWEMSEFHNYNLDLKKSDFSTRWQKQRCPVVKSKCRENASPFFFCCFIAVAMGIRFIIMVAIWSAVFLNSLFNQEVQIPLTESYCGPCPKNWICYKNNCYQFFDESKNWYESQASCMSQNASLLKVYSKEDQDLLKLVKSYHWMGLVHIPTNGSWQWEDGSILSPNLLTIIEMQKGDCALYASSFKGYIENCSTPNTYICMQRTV
Assay: flow cytometry; NK92 cells; NK92 cells, Table 11 immune-cell binding (concentration dependent)

EC50: 122 nM
B1: anti-NKG2D antibody clone 013 (antibody, V domains shown)
VH: EQSGGGAGGGLVKPGGSLELCCKASGFDFSIYWMSWVRQSPGKGLEWIGRIYGGSSDYTAYASWVNGRFTLSRDIDQSTGCLQLNSLTAADTAMYYCVRLNPSFSRSFDYWGQGTLVTVSS
VL: DIQMTQSPSSVSASVGDRVTITCRASQGIFSWLVWYQQKPGKAPELLMYGASTLQSGVPSRFSGSGSGTDFTLTISSLQPEDFATYYCQQGYSTPYTFGQGTKVEIK
notes: From transgenic rabbits
